Source: paper doi:10.1101/2025.02.05.636571

Test system: P41676
Assay: SEC

For “PK2 C181S/C211S (full-length PK2 from the baculovirus AcMNPV, stable mutant, C-terminal His-tag)”, the “percent in the monomer peak” value was “monomer (62%)”.
